Test results as given in patent US20180355053A1 (published 2018).

Target: CD47-His (UniProt Q08722 19-139)
Experiment: SPR (Biacore)

CD47-His, sequence (Q08722 19-139): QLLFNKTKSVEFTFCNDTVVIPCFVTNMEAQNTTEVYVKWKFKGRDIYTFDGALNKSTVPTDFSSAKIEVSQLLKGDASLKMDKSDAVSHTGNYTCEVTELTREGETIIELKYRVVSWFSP

| Kd [nM] | Binder |
| --- | --- |
| 15.9 | CD20-4GL-SIRPα (bispecific antibody) heavy: not shown light: QIVLSQSPAILSASPGEKVTMTCRASSSVSYIHWFQQKPGSSPKPWIYATSNLASGVPVRFSGSGSGTSYSLTISRVEAEDAATYYCQQWTSNPPTFGGGTKLEIKRTVAAPSVFIFPPSDEQLKSGTASVVCLLNNFYPREAKVQWKVDNALQSGNSQESVTEQDSKDSTYSLSSTLTLSKADYEKHKVYACEVTHQGLSSPVTKSFNRGEC |
| 6.39 | SIRPα-CD20 (bispecific antibody) heavy: not shown light: QIVLSQSPAILSASPGEKVTMTCRASSSVSYIHWFQQKPGSSPKPWIYATSNLASGVPVRFSGSGSGTSYSLTISRVEAEDAATYYCQQWTSNPPTFGGGTKLEIKRTVAAPSVFIFPPSDEQLKSGTASVVCLLNNFYPREAKVQWKVDNALQSGNSQESVTEQDSKDSTYSLSSTLTLSKADYEKHKVYACEVTHQGLSSPVTKSFNRGEC |
| 21.4 | CD20-2GL-SIRPα (bispecific antibody) heavy: not shown light: QIVLSQSPAILSASPGEKVTMTCRASSSVSYIHWFQQKPGSSPKPWIYATSNLASGVPVRFSGSGSGTSYSLTISRVEAEDAATYYCQQWTSNPPTFGGGTKLEIKRTVAAPSVFIFPPSDEQLKSGTASVVCLLNNFYPREAKVQWKVDNALQSGNSQESVTEQDSKDSTYSLSSTLTLSKADYEKHKVYACEVTHQGLSSPVTKSFNRGEC |
